Data from patent publication US20240158475A1.
Changes are numbered by the printed parent chain.

B1: Mutation 2 (antibody, V domains shown)
VH: EVQLQQSGTELVRPGALVKLSCKASGFNIKDYYVHWVKQRPRQGLEWIGWIDPNNGKTLYDPKYQDKASITSDTSTNTAYLQLRSLTSEDTAVYYCVTAYVRFVYWGQGTLVTVSA
VL: QIVLTQSPAIMSAFPGERVTMTCSASSSVRYMYWHQQKPGSSPRLLIYDTSNVASGVPVRFSGSGSGTSYSLTISRDEAMDAATYYCQQYSSTPRTFGGGTKLEIKR
B2: anti-dengue virus NS1 3D5 monoclonal antibody (recombinant, expressed in CHO cells) (antibody, mouse IgG1, kappa, V domains shown)
VH: B1 VH with L59I, Y64F
VL: B1 VL with S27T, R30K, D49E, V53I, Y90W, T93Y
B3: Mutation 4 (antibody, V domains shown)
VH: B1 VH with D31R, N54R, Y64V
VL: B1 VL with R30I, D49W, V57Y, Y90V
B4: Mutation 1 (antibody, V domains shown)
VH: B1 VH with N54E, Y64F
VL: B1 VL with Y90W
B5: Mutation 3 (antibody, V domains shown)
VH: B1 VH with D31L, N54K, Y64C
VL: B1 VL with R30V, D49C, V57L, Y90R
B6: Mutation 1-11 (antibody, V domains shown)
VH: B1 VH with V34L, N54E, Y64F, T98S, V101Y
VL: B1 VL with Y90W, T93F
B7: Mutation 1-17 (antibody, V domains shown)
VH: B1 VH with V34L, N54E, L59I, Y64F, T98S, V101F
VL: B1 VL with S27T, V53I, Y90W, T93F
B8: Mutation 1-12 (antibody, V domains shown)
VH: B1 VH with N54E, Y64F, V101F
VL: B1 VL with S27T, V53I, Y90W
B9: Mutation 1-6 (antibody, V domains shown)
VH: B1 VH with N54E, L59I, Y64F
VL: B1 VL with S27T, V53I, Y90W
B10: Mutation 1-20 (antibody, V domains shown)
VH: B1 VH with N54E, Y64F, T98S, V101Y
VL: B1 VL with Y90W
B11: Mutation 1-7 (antibody, V domains shown)
VH: B1 VH with V34I, N54E, Y64F, V101F
VL: B1 VL with V53L, Y90W, T93Y
B12: Mutation 1-9 (antibody, V domains shown)
VH: B1 VH with N54E, Y64F, T98S
VL: B1 VL with V53I, Y90W
B13: Mutation 1-8 (antibody, V domains shown)
VH: B1 VH with V34L, N54E, L59I, Y64F, V101Y
VL: B1 VL with S27T, Y90W, T93F
B14: Mutation 1-14 (antibody, V domains shown)
VH: B1 VH with V34L, N54E, Y64F, T98S
VL: B1 VL with S27T, Y90W, T93F
B15: Mutation 1-16 (antibody, V domains shown)
VH: B1 VH with V34I, N54E, Y64F, T98S
VL: B1 VL with Y90W, T93Y
B16: Mutation 1-19 (antibody, V domains shown)
VH: B1 VH with V34I, N54E, L59I, Y64F, T98S, V101F
VL: B1 VL with S27T, Y90W, T93Y
B17: Mutation 1-22 (antibody, V domains shown)
VH: B1 VH with V34I, N54E, Y64F, T98S, V101Y
VL: B1 VL with S27T, V53L, Y90W, T93F
B18: Mutation 1-18 (antibody, V domains shown)
VH: B1 VH with N54E, Y64F, T98S
VL: B1 VL with V53L, Y90W
B19: Mutation 1-21 (antibody, V domains shown)
VH: B1 VH with N54E, L59I, Y64F, T98S, V101F
VL: B1 VL with V53L, Y90W, T93F
B20: Mutation 1-10 (antibody, V domains shown)
VH: B1 VH with V34I, N54E, L59I, Y64F, T98S, V101F
VL: B1 VL with S27T, V53L, Y90W, T93Y
B21: Mutation 1-13 (antibody, V domains shown)
VH: B1 VH with V34I, N54E, L59I, Y64F, V101Y
VL: B1 VL with V53L, Y90W, T93Y
B22: Mutation 1-15 (antibody, V domains shown)
VH: B1 VH with N54E, L59I, Y64F, V101Y
VL: B1 VL with S27T, V53I, Y90W

Each binder was assayed against DN-III-NS antigen (produced by Fapon Biotech InC.) (dengue virus) (assay: capture ELISA, antibody sample 3-fold dilution).

| Binder | OD450 (ref. 630 nm) [OD] |
| --- | --- |
| B1 | 2.25 |
| B2 | 2.31 |
| B3 | 0.102 |
| B4 | 2.38 |
| B5 | 0.879 |

These binders were tested against DN-III-NS antigen (produced by Fapon Biotech InC.) (dengue virus) (assay: capture ELISA, antibody sample 81-fold dilution).

| Binder | OD450 (ref. 630 nm) [OD] |
| --- | --- |
| B1 | 0.689 |
| B2 | 0.696 |
| B4 | 0.918 |

The binders below were run against DN-III quality control recombinant protein (produced by Fapon Biotech InC.) (dengue virus) (assay: BLI, AMC sensor, antibody captured).

| Binder | Kd [nM] | koff [s⁻¹] | kon [M⁻¹ s⁻¹] |
| --- | --- | --- | --- |
| B2 | 3.09 | 0.000137 | 44300 |
| B6 | 0.87 | 2.83e-05 | 32400 |
| B7 | 0.78 | 2.71e-05 | 34600 |
| B8 | 1.09 | 4.55e-05 | 41800 |
| B4 | 1.07 | 4.03e-05 | 37700 |
| B9 | 0.8 | 3.72e-05 | 46700 |
| B10 | 0.41 | 1.66e-05 | 40900 |
| B11 | 0.11 | 3.91e-05 | 357000 |
| B12 | 0.45 | 1.35e-05 | 30100 |
| B13 | 0.7 | 2.33e-05 | 33200 |
| B14 | 0.111 | 4.53e-05 | 408000 |
| B15 | 0.8 | 3.04e-05 | 38100 |
| B16 | 4.1 | 4.34e-05 | 31400 |
| B17 | 0.87 | 3.2e-05 | 48400 |
| B18 | 0.9 | 3.99e-05 | 44500 |
| B19 | 0.66 | 1.31e-05 | 32300 |
| B20 | 1.14 | 4.21e-05 | 36900 |
| B21 | 0.49 | 2.08e-05 | 42400 |
| B22 | 0.42 | 1.89e-05 | 45200 |

Each binder was assayed against DN-III-NS antigen (produced by Fapon Biotech InC.) (dengue virus) (assay: capture ELISA, antibody sample 9-fold dilution).

| Binder | OD450 (ref. 630 nm) [OD] |
| --- | --- |
| B1 | 2.13 |
| B2 | 2.22 |
| B3 | 0.014 |
| B4 | 2.29 |
| B5 | 0.21 |

The binders below were run against DN-III-NS antigen (produced by Fapon Biotech InC.) (dengue virus) (assay: capture ELISA, antibody sample 729-fold dilution).

| Binder | OD450 (ref. 630 nm) [OD] |
| --- | --- |
| B1 | 0.158 |
| B2 | 0.169 |
| B4 | 0.188 |

The binders below were run against DN-III-NS antigen (produced by Fapon Biotech InC.) (dengue virus) (assay: capture ELISA (anti-mouse IgG / antibody / antigen / HRP-mAb), antibody sample Original).

| Binder | OD450 (ref. 630 nm) [OD] |
| --- | --- |
| B1 | 2.27 |
| B2 | 2.34 |
| B3 | 0.892 |
| B4 | 2.37 |
| B5 | 1.05 |

The binders below were run against DN-III-NS antigen (produced by Fapon Biotech InC.) (dengue virus) (assay: capture ELISA, antibody sample 243-fold dilution).

| Binder | OD450 (ref. 630 nm) [OD] |
| --- | --- |
| B1 | 0.204 |
| B2 | 0.281 |
| B4 | 0.361 |

The binders below were run against DN-III-NS antigen (produced by Fapon Biotech InC.) (dengue virus) (assay: capture ELISA, antibody sample 27-fold dilution).

| Binder | OD450 (ref. 630 nm) [OD] |
| --- | --- |
| B1 | 1.56 |
| B2 | 1.57 |
| B4 | 1.9 |
| B5 | 0.031 |
